Here are results for 167 variants from the RNAGym collection of RNA variant scans (doi:10.7554/elife.80360).

The labels stand for the following.
B1: HDV Ribozyme (parent)
chain: GGCCGGCAUGGUCCCAGCCUCCUCGCUGGCGCCGGCUGGGCAACAUUCCGAGGGGACCGUCCCCUCGGUAAUGGCGAAUGGGACCCA

In this data set the parent is B1. The data set is described as follows: self-cleavage, relative activity (ratio to wild type); higher = more cleavage; co-transcriptional.
Take G25C C30A: the self-cleavage was found to be 0.0511.
The result for C26U G28A reads 0.234; that for G25C A78U, 0.131.
The result for C26A A42U reads 0.525.
In the case of C26A A77G, the self-cleavage stood at 0.902.
The result for U27C A78C reads 0.0594; that for G25U U47G, 0.0692.
The result for G25U G53A reads 0.19; that for G25C G68A, 0.227.
Next, G25U C75U: 0.162; U27C A51U: 0.804.
As to G25U U79C, the self-cleavage turned out to be 0.115.
The result for U27A G55C reads 0.864; that for C26A A71G, 1.11; that for C26G C61A, 1.12.
Consider U27A G34C, for which the self-cleavage was determined as 0.0978.
Next, G25U G31A: 0.157.
The result for U27C G68U reads 0.642.
The result for C26G G74U reads 0.359; that for G25C U46A, 0; that for U27G A43U, 0.415.
Turning to C26A A78G, the self-cleavage came out at 0.831.
Next, G25C A51U: 0.148; U27A G80U: 0.231; U27A C48U: 0.95.
Regarding U27G C66G, the self-cleavage came out at 0.629.
In the case of U27A G82C, the self-cleavage turned out to be 0.322.
Turning to G25U C62A, the self-cleavage was 0.138.
For G25U G80U, the self-cleavage came out at 0.115.
Take G25C G29C: the self-cleavage came out at 0.0489.
Consider U27C A77G, for which the self-cleavage is 0.798.
With G25C G31U, the self-cleavage was determined as 0.214.
As for U27A U79A, the self-cleavage was found to be 0.612.
U27A U79G: the self-cleavage turned out to be 0.831.
For C26A G39U, the self-cleavage was found to be 0.935.
Next, U27A G31U: 0.244; C26G C41G: 0.739; C26G C41U: 0.76.
The result for G25U A77U reads 0.0923; that for G25C G82A, 0.0361; that for C26G G68A, 0.787.
In the case of U27A G40C, the self-cleavage worked out at 0.151.
Next, C26A G35C: 0.429.
Turning to C26A G35U, the self-cleavage was determined as 0.619.
Take U27C G80A: the self-cleavage is 0.237.
Next, G25C U65G: 0.0875; G25C A45G: 0.104.
The result for G25C G35A reads 0.0346; that for C26A U69A, 0.985.
The result for C26G C86A reads 0.847; that for C26G G82A, 0.813; that for U27C A70C, 0.604.
With G25U A42G, the self-cleavage is 0.119.
Take C26U A42U: the self-cleavage was 0.682.
Consider U27G C64U, for which the self-cleavage came out at 0.72.
Next, C26G C84A: 1.09; U27A A43C: 0.0723.
The result for U27A A43U reads 0.401; that for G25C G81C, 0.0449; that for G25C G81U, 0.151.
For C26A C44G, the self-cleavage amounted to 0.712.
For the variant U27A C63A, the self-cleavage worked out at 0.95.
The result for G25C C48U reads 0.26; that for G25C C48G, 0.133; that for U27C U69A, 0.317.
Next, G25C C32A: 0.148; U27A G67U: 0.799; C26G G52U: 0.671.
Next, C26G G52C: 0.889; C26U C85A: 0.96; C26U U65G: 1.02.
In the case of C26U U65C, the self-cleavage was 1.07.
The result for C26U G73C reads 0.492.
In the case of U27G A77G, the self-cleavage was 0.723.
Consider U27A A70G, for which the self-cleavage was 0.987.
G25C C58G: the self-cleavage came to 0.161.
The result for C26G A83C reads 0.785; that for G25U C36U, 0.218; that for U27G C41G, 0.802.
The result for U27G C41A reads 0.969; that for C26U C44G, 0.831.
Turning to U27C C32U, the self-cleavage came to 0.115.
For the variant U27C C32G, the self-cleavage is 0.217.
The result for C26A C63G reads 0.853.
The result for G25U G54C reads 0.122.
Next, C26A U79G: 0.875; U27C G73C: 0.332.
Regarding U27A G74C, the self-cleavage was determined as 0.
As for C26A C30U, the self-cleavage came out at 0.68.
In the case of U27C U72G, the self-cleavage came out at 0.612.
Consider U27C U72A, for which the self-cleavage is 0.396.
Next, U27C C33A: 0; G25U G82U: 0.0252; G25U G55A: 0.201.
Next, G25U U60A: 0.237; G25U U60C: 0.0475.
For the variant C26U U46C, the self-cleavage amounted to 0.897.
Next, G25C C66U: 0.0563.
Consider C26U C84G, for which the self-cleavage was 0.962.
As to G25U C33A, the self-cleavage is 0.156.
With G25U C33U, the self-cleavage turned out to be 0.0831.
The result for C26U G80A reads 0.897.
Next, C26U U47G: 0.877; C26U C30A: 0.816; C26U C30U: 0.967.
Regarding C26U A70G, the self-cleavage was 0.831.
As to C26G A70C, the self-cleavage was 0.957.
As for U27G C58U, the self-cleavage was 0.906.
With G25U G38A, the self-cleavage amounted to 0.0511.
In the case of C26U C33U, the self-cleavage stood at 0.872.
Next, C26U C33G: 0.389.
Consider U27C A87G, for which the self-cleavage is 0.497.
As for U27C C64G, the self-cleavage was determined as 0.652.
Next, U27C C49U: 0.617; C26G U65G: 1.09; C26A A70G: 1.11.
The result for C26A A70C reads 1.01; that for C26U U72G, 0.721; that for C26A A56U, 1.12.
Next, G25U C66U: 0.151; G25U C66A: 0.172; G25U C41G: 0.119.
For the variant G25C U37A, the self-cleavage is 0.0426.
The result for C26U C57G reads 0.932; that for C26U C57A, 1.22.
The result for U27A C86U reads 0.966.
Next, C26A C36G: 0.196; C26G G55A: 0.884; C26U A51U: 0.901.
In the case of C26U A51C, the self-cleavage worked out at 0.872.
Take C26U G54C: the self-cleavage is 1.03.
The result for C26U G31A reads 0.819; that for C26U G31U, 0.762.
The result for U27C G39C reads 0.166.
As to G25U G68A, the self-cleavage was 0.0923.
The result for C26G C75A reads 0.266; that for C26G G40C, 0.19; that for C26G U69C, 1.26.
As for C26G U69A, the self-cleavage was determined as 0.886.
Next, G25U A78U: 0.0831; G25U A78G: 0.185; G25U A78C: 0.0665.
On to U27A A83U, for which the self-cleavage came out at 0.88.
Next, U27A A83G: 0.723; U27A C62U: 0.935; C26A U60A: 1.02.
The result for G25C C84G reads 0.158; that for G25C C84U, 0.0314.
Next, C26G U46A: 0.731.
In the case of U27C G38C, the self-cleavage was 0.123.
As to C26U G29U, the self-cleavage is 0.136.
For C26G C57A, the self-cleavage is 0.812.
Next, C26G C49A: 0.95; G25U U69G: 0.244; U27C C36A: 0.142.
The result for G25C A71G reads 0.131; that for C26A C66U, 0.857.
As for C26A C66A, the self-cleavage came to 0.909.
Next, G25C A87C: 0.07; G25C A87U: 0.0773.
Next, C26U G67C: 1.12; C26U G67A: 0.947.
The result for G25C A70G reads 0.0573; that for U27A A42G, 0.361.
Take U27A C33G: the self-cleavage was found to be 0.287.
Consider G25U A83C, for which the self-cleavage amounted to 0.0386.
The result for U27C G74A reads 0.193.
